Measurements taken from the supplement of paper PMC6757056.
± gives the standard deviation of the averaged measurements.

B1: library; a variant is named by its letters at N, in order (parent)
chain: GCUGUCACCGGUGCUUGGUACGUUAUAUUCAGCCGGUCUGAUGAGUCUNNNNNNAGACGAAACAGC

Columns and labels:
[1] = variants of: B1; experiment: FACS-Seq fitted mean relative fluorescence mCherry/BFP without ligand (log10 relative fluorescence); HEK293T overexpressing SLC46A1; higher = higher reporter protein expression; details: without (6R,S)-folinic acid; ligand present: no
How it was run: (§1)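 Genomic DNA from 6 mCherry/BFP sort bins was PCR-amplified, barcoded and sequenced on MiSeq. The sorted cells were enriched HEK293T libraries, lentivirally transduced with a ribozyme-switch mCherry reporter and an EF1α-BFP marker, incubated with or without ligand for 48 h. Fluorescence derives from a normal fit to the bin counts. The fit was on log10(mCherry/BFP), and means were scaled to five spiked-in control ribozymes.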

[2] = variants of: B1; experiment: normalized RNA/DNA level without ligand (relative to sTRSVctl = 100) (log10 (% of sTRSVctl)); HEK293T overexpressing SLC46A1; higher = less ribozyme self-cleavage, higher mRNA level; details: without (6R,S)-folinic acid; ligand present: no
How it was run: (§2)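 Library plasmids carrying ribozyme switches linked to mCherry, or to eGFP in some ligand experiments, were transfected into HEK293T at 4 µg per 6-well well, with any ligand added 1 h earlier. Seventy-two hours on, total RNA was extracted with EDTA and reverse-transcribed, amplified, barcoded and sequenced. RNA level was RNA over DNA reads normalized to a spiked-in non-cleaving sequence or to the top sequences, then scaled and log-transformed. The top set was 25 sequences, the transform was ×100 and log10, and sequences needed ≥100 DNA reads.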

[3] = variants of: B1; experiment: FACS-Seq fitted mean relative fluorescence mCherry/BFP with ligand (log10 relative fluorescence); HEK293T overexpressing SLC46A1; ligand concentration (+) FACS-Seq: 6 mM; higher = higher reporter protein expression; details: with (6R,S)-folinic acid; ligand present: yes
How it was run: as §1

[4] = variants of: B1; experiment: normalized RNA/DNA level with ligand (relative to sTRSVctl = 100) (log10 (% of sTRSVctl)); HEK293T overexpressing SLC46A1; ligand concentration (+) RNA-Seq: 6 mM; higher = less ribozyme self-cleavage, higher mRNA level; details: with (6R,S)-folinic acid; ligand present: yes
How it was run: as §2

| Variant | FACS-Seq fitted mean (log10) [1] | normalized RNA/DNA level without ligand (log10) [2] | FACS-Seq fitted mean (log10) [3] | normalized RNA/DNA level with ligand (log10) [4] |
| --- | --- | --- | --- | --- |
| UUGAGG | 0.275 ± 0.1 | 1.86 ± 0.025 | 0.336 ± 0.18 | 2.006 ± 0.0026 |
| UUGAGA | 0.325 ± 0.084 | 1.841 ± 0.013 | 0.468 ± 0.01 | 1.993 ± 0.0082 |
| CUUGGA | 0.658 ± 0.053 | 2.001 ± 0.019 | 0.547 ± 0.15 | 1.99 ± 0.025 |
| CUUGGC | 0.556 ± 0.084 | 2.062 ± 0.0022 | 0.651 ± 0.35 | 2.04 ± 0.037 |
| CUUGGG | 0.49 ± 0.05 | 1.9697 ± 0.0016 | 0.119 ± 0.14 | 2.04 ± 0.03 |
| GUUUUA | 0.327 ± 0.011 | 2 ± 0.0092 | 0.461 ± 0.024 | 2.02 ± 0.029 |
| GUUUUC | 0.421 ± 0.019 | 2.03 ± 0.021 | 0.346 ± 0.14 | 2 ± 0.028 |
| AUGAAU | 0.232 ± 0.017 | 1.929 ± 0.013 | 0.0739 ± 0.05 | 2 ± 0.022 |
| UUUACU | 0.0671 ± 0.017 | 2.032 ± 0.0085 | -0.0776 ± 0.03 | 2.033 ± 0.013 |
| UUUACC | 0.636 ± 0.0052 | 1.996 ± 0.018 | 0.724 ± 0.077 | 1.97 ± 0.036 |
| AUUAGA | 0.0629 ± 0.005 | 1.965 ± 0.004 | -0.224 ± 0.063 | 2.01 ± 0.033 |
| AUUAGG | 0.125 ± 0.18 | 1.9 ± 0.023 | 0.123 ± 0.074 | 2.01 ± 0.028 |
| GUUAGG | 0.206 ± 0.031 | 1.938 ± 0.0023 | 0.301 ± 0.51 | 2 ± 0.031 |
| UUGUAU | -0.387 ± 0.048 | 1.99 ± 0.02 | -0.176 ± 0.12 | 2.014 ± 0.0072 |
| UUGUAG | 0.271 ± 0.0067 | 1.866 ± 0.0056 | 0.397 ± 0.18 | 1.992 ± 0.0089 |
| AUGUAG | 0.508 ± 0.058 | 1.864 ± 0.016 | 0.615 ± 0.17 | 1.99 ± 0.035 |
| CUGGGA | 0.446 ± 0.08 | 2.006 ± 0.014 | 0.348 ± 0.35 | 2.03 ± 0.047 |
| GUGGAC | 0.143 ± 0.12 | 1.868 ± 0.016 | -0.011 ± 0.21 | 1.975 ± 0.0039 |
| UUUAAG | 0.386 ± 0.13 | 1.769 ± 0.0025 | 0.698 ± 0.2 | 1.96 ± 0.046 |
| AUGAUG | 0.408 ± 0.071 | 1.87 ± 0.023 | 0.544 ± 0.23 | 1.98 ± 0.023 |
| AUGAUU | 0.418 ± 0.17 | 1.989 ± 0.0036 | 0.334 ± 0.023 | 2.02 ± 0.027 |
| AUGGAA | 0.0999 ± 0.019 | 1.919 ± 0.0071 | -0.0772 ± 0.045 | 1.993 ± 0.0063 |
| AUGGAC | 0.279 ± 0.031 | 1.955 ± 0.0055 | 0.259 ± 0.12 | 1.99 ± 0.022 |
| AUGGAG | 0.271 ± 0.039 | 1.735 ± 0.0043 | 0.622 ± 0.21 | 1.97 ± 0.02 |

| Variant | FACS-Seq fitted mean (log10) [1] | normalized RNA/DNA level without ligand (log10) [2] | FACS-Seq fitted mean (log10) [3] | normalized RNA/DNA level with ligand (log10) [4] |
| --- | --- | --- | --- | --- |
| CUGUAU | 0.306 ± 0.094 | 1.981 ± 0.0073 | 0.479 ± 0.11 | 2 ± 0.021 |
| UUUUUG | 0.145 ± 0.073 | 1.855 ± 0.016 | 0.176 ± 0.0085 | 2 ± 0.022 |
| UUUCUG | 0.112 ± 0.063 | 1.92 ± 0.0064 | 0.197 ± 0.012 | 2 ± 0.061 |
| CUGAGA | -0.345 ± 0.055 | 1.985 ± 0.0047 | -0.472 ± 0.062 | 1.99 ± 0.035 |
| GUGAGA | 0.474 ± 0.23 | 1.973 ± 0.013 | 0.54 ± 0.081 | 2.02 ± 0.022 |
| GUGAGG | 0.394 ± 0.093 | 1.872 ± 0.0053 | 0.497 ± 0.2 | 2.015 ± 0.0075 |
| GUUAUA | -0.102 ± 0.13 | 1.99 ± 0.031 | -0.0941 ± 0.099 | 2.012 ± 0.019 |
| GUUAUG | 0.244 ± 0.011 | 1.929 ± 0.0065 | 0.431 ± 0.16 | 1.99 ± 0.0045 |
| GUUGAG | 0.527 ± 0.087 | 1.89 ± 0.02 | 0.542 ± 0.36 | 2.028 ± 0.013 |
| GUUGAA | 0.184 ± 0.013 | 1.95 ± 0.01 | 0.741 ± 0.0086 | 2.01 ± 0.035 |
| GUUGAC | 0.276 ± 0.11 | 1.949 ± 0.018 | 0.451 ± 0.087 | 2.01 ± 0.028 |
| UUGGAG | -0.00192 ± 0.0051 | 1.71 ± 0.035 | 0.315 ± 0.1 | 1.99 ± 0.016 |
| UUGGAA | 0.241 ± 0.03 | 1.9 ± 0.025 | 0.528 ± 0.17 | 1.99 ± 0.029 |
| GUUGGU | 0.346 ± 0.21 | 1.98 ± 0.027 | 0.126 ± 0.09 | 2.02 ± 0.029 |
| GUUGGA | 0.594 ± 0.3 | 1.977 ± 0.013 | 0.154 ± 0.35 | 2.02 ± 0.04 |
| AUGCGA | 0.422 ± 0.019 | 1.979 ± 0.00081 | 0.569 ± 0.15 | 2.01 ± 0.035 |
| AUGCGU | 0.523 ± 0.16 | 1.951 ± 0.016 | 0.63 ± 0.3 | 1.99 ± 0.031 |
| AUGCGG | 0.0258 ± 0.11 | 1.939 ± 0.013 | 0.185 ± 0.22 | 2.02 ± 0.043 |
| GUUCGC | 0.511 ± 0.017 | 2.07 ± 0.024 | 0.368 ± 0.16 | 2.05 ± 0.025 |
| GUUCGG | 0.155 ± 0.11 | 2.003 ± 0.0021 | 0.178 ± 0.021 | 1.985 ± 0.0024 |
| GUGUGC | -0.0812 ± 0.0037 | 1.758 ± 0.017 | 0.131 ± 0.14 | 1.979 ± 0.0082 |
| GUGUGU | 0.164 ± 0.1 | 1.942 ± 0.0063 | 0.271 ± 0.083 | 2.02 ± 0.036 |
| GUGUGA | 0.383 ± 0.041 | 1.9667 ± 0.00054 | 0.136 ± 0.21 | 2.038 ± 0.013 |
| AUUAAA | 0.22 ± 0.063 | 1.974 ± 0.0062 | 0.296 ± 0.21 | 1.992 ± 0.0089 |

| Variant | FACS-Seq fitted mean (log10) [1] | normalized RNA/DNA level without ligand (log10) [2] | FACS-Seq fitted mean (log10) [3] | normalized RNA/DNA level with ligand (log10) [4] |
| --- | --- | --- | --- | --- |
| GUUCCA | 0.262 ± 0.14 | 2.0222 ± 0.00044 | 0.191 ± 0.16 | 2.03 ± 0.054 |
| AUUAUU | 0.191 ± 0.11 | 2.02 ± 0.023 | 0.497 ± 0.056 | 2.03 ± 0.024 |
| AUGCAC | 0.724 ± 0.038 | 2.001 ± 0.0052 | 0.703 ± 0.1 | 2.014 ± 0.01 |
| AUGCAA | 0.349 ± 0.0069 | 1.9632 ± 0.00072 | 0.36 ± 0.083 | 1.976 ± 0.011 |
| GUGCUG | -0.457 ± 0.06 | 2.077 ± 0.012 | -0.879 ± 0.14 | 2.05 ± 0.065 |
| UUGGUG | 0.364 ± 0.16 | 1.75 ± 0.031 | 0.52 ± 0.26 | 2.01 ± 0.053 |
| CUUGUG | 0.147 ± 0.16 | 2.021 ± 0.012 | -0.331 ± 0.28 | 2.02 ± 0.039 |
| UUUGGG | 0.388 ± 0.062 | 1.71 ± 0.022 | 0.73 ± 0.13 | 1.94 ± 0.048 |
| UUUGGA | 0.333 ± 0.049 | 1.9 ± 0.015 | 0.499 ± 0.056 | 1.98 ± 0.029 |
| UUUCCG | 0.446 ± 0.012 | 1.918 ± 0.012 | 0.493 ± 0.15 | 1.99 ± 0.05 |
| GUGGUG | 0.383 ± 0.21 | 1.92 ± 0.024 | 0.306 ± 0.32 | 2 ± 0.043 |
| GUGGUU | 0.311 ± 0.089 | 2.014 ± 0.0041 | 0.443 ± 0.013 | 2.02 ± 0.037 |
| UUUGCG | 0.0287 ± 0.045 | 1.867 ± 0.0062 | 0.0548 ± 0.11 | 1.98 ± 0.042 |
| UUUGCU | 0.805 ± 0.017 | 2.043 ± 0.02 | 0.618 ± 0.24 | 2.01 ± 0.084 |
| UUUGCA | 0.00421 ± 0.011 | 1.981 ± 0.0053 | -0.275 ± 0.0052 | 1.99 ± 0.032 |
| AUUUAU | 0.207 ± 0.088 | 2.011 ± 0.0041 | 0.186 ± 0.11 | 2.01 ± 0.035 |
| AUUUAC | 0.138 ± 0.029 | 2.001 ± 0.018 | 0.497 ± 0.13 | 2.03 ± 0.026 |
| UUGGGG | 0.207 ± 0.029 | 1.824 ± 0.0037 | 0.521 ± 0.12 | 2.02 ± 0.036 |
| UUGGGU | 0.184 ± 0.18 | 1.943 ± 0.0059 | 0.455 ± 0.16 | 1.98 ± 0.033 |
| UUUUAG | 0.393 ± 0.03 | 1.836 ± 0.0045 | 0.488 ± 0.26 | 1.97 ± 0.051 |
| UUUUAC | 0.482 ± 0.098 | 1.975 ± 0.002 | 0.507 ± 0.18 | 1.97 ± 0.04 |
| AUUUGG | 0.293 ± 0.04 | 1.88 ± 0.0039 | 0.37 ± 0.04 | 1.96 ± 0.023 |
| CUUGAG | 0.41 ± 0.091 | 1.9276 ± 0.0002 | 0.534 ± 0.33 | 2.005 ± 0.0023 |
